Results taken from IntAct's records for PubMed 31515488.
Blank lines part the entries; values can stand above or below the substance they belong to.

Columns and labels:
tfp11_human TFIP11 = tfp11_human TFIP11 (UniProt Q9UBB9)
reep6_human REEP6 = reep6_human REEP6 (UniProt Q96HR9)
atrap_human AGTRAP = atrap_human AGTRAP (UniProt Q6RW13)
nqo2_human NQO2 = molecular target: T1, nqo2_human NQO2 (UniProt P16083)
T1 sequence: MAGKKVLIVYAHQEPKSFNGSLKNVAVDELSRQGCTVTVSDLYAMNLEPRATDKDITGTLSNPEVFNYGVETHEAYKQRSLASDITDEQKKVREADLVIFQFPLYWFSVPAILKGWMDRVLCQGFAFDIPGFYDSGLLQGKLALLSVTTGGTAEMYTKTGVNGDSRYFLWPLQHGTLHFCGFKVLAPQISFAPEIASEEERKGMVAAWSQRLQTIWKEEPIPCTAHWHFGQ

stox1_human STOX1 = stox1_human STOX1 (UniProt Q6ZVD7)
rgs3_human RGS3 = rgs3_human RGS3 (UniProt P49796)
mycd_human MYOCD = molecular target: T2, mycd_human MYOCD (UniProt Q8IZQ8)
T2 sequence: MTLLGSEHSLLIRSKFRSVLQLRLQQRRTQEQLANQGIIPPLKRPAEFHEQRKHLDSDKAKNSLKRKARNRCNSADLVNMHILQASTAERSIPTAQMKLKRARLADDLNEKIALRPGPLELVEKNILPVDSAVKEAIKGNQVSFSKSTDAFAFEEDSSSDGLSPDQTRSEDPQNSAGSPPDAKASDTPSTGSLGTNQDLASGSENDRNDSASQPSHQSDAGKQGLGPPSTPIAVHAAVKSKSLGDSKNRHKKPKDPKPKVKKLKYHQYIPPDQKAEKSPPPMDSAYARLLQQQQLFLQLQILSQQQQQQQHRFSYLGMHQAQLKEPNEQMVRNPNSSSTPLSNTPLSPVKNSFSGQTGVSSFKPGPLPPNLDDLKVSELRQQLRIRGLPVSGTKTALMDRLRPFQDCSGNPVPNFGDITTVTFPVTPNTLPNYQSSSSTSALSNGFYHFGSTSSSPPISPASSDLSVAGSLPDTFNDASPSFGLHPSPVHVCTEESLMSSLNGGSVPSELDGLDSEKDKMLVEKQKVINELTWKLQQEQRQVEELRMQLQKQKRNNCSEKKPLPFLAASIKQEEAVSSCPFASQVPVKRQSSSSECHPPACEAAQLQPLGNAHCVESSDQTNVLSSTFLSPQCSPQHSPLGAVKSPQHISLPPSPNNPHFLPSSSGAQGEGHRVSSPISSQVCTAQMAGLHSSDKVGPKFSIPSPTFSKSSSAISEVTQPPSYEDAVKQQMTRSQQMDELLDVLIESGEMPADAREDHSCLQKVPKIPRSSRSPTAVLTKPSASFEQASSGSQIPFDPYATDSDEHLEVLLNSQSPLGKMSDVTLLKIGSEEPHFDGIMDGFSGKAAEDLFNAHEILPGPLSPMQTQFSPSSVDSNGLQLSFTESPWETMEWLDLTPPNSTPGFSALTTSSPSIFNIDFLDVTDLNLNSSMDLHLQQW

fosl2_human FOSL2 = molecular target: T3, fosl2_human FOSL2 (UniProt P15408)
T3 sequence: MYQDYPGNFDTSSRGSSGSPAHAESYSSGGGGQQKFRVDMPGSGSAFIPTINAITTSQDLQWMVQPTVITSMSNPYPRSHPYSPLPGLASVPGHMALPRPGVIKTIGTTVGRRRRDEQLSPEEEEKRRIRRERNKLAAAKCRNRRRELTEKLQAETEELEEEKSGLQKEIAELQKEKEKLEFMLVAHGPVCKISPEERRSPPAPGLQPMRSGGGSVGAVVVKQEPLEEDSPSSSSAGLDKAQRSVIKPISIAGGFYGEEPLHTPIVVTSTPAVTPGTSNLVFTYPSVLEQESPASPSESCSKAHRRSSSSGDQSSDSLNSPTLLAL

vtnc_human VTN = vtnc_human VTN (UniProt P04004)
gt253_human CERCAM = gt253_human CERCAM (UniProt Q5T4B2)
leg9b_human LGALS9B = leg9b_human LGALS9B (UniProt Q3B8N2)
pdli7_human PDLIM7 = pdli7_human PDLIM7 (UniProt Q9NR12)
anr44_human ANKRD44 = anr44_human ANKRD44 (UniProt Q8N8A2)
snrpa_human SNRPA = snrpa_human SNRPA (UniProt P09012)
ptbp2_human PTBP2 = ptbp2_human PTBP2 (UniProt Q9UKA9)
S100A1 = S100A1 (UniProt P23297)
scel_human SCEL = scel_human SCEL (UniProt O95171)
ap2m1_human AP2M1 = ap2m1_human AP2M1 (UniProt Q96CW1)
lcp2_human LCP2 = lcp2_human LCP2 (UniProt Q13094)
phs_human PCBD1 = phs_human PCBD1 (UniProt P61457)
tb22b_human TBC1D22B = tb22b_human TBC1D22B (UniProt Q9NU19)
pram_human PRAM1 = pram_human PRAM1 (UniProt Q96QH2)
FBP1 = FBP1 (UniProt P09467)
ptps_human PTS = ptps_human PTS (UniProt Q03393)
cdkl3_human CDKL3 = cdkl3_human CDKL3 (UniProt Q8IVW4)
frih_human FTH1 = frih_human FTH1 (UniProt P02794)
ubql1_human UBQLN1 = ubql1_human UBQLN1 (UniProt Q9UMX0)
odam_human ODAM = molecular target: T4, odam_human ODAM (UniProt A1E959)
T4 sequence: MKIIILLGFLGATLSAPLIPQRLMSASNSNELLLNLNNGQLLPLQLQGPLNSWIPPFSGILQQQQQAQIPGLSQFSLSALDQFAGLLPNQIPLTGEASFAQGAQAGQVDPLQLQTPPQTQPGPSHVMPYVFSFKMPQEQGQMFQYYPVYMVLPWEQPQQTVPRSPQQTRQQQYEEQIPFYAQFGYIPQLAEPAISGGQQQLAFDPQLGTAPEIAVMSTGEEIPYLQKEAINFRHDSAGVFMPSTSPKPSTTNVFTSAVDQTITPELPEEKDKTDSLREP

rhxf2_human RHOXF2 = molecular target: T5, rhxf2_human RHOXF2 (UniProt Q9BQY4)
T5 sequence: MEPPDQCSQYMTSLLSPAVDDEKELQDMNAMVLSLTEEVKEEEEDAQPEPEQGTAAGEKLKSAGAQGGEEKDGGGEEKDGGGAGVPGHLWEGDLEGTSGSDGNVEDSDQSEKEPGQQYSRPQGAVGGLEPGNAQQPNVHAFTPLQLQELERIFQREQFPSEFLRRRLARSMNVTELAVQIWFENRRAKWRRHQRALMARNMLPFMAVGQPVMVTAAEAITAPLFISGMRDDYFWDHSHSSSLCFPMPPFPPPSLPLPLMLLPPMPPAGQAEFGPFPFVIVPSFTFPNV

tom1_human TOM1 = tom1_human TOM1 (UniProt O60784)
naif1_human NAIF1 = naif1_human NAIF1 (UniProt Q69YI7)
nf2l2_human NFE2L2 = nf2l2_human NFE2L2 (UniProt Q16236)
jkip2_human JAKMIP2 = jkip2_human JAKMIP2 (UniProt Q96AA8)
ccdb1_human CCNDBP1 = ccdb1_human CCNDBP1 (UniProt O95273)
stat3_human STAT3 = stat3_human STAT3 (UniProt P40763)
efs_human EFS = efs_human EFS (UniProt O43281)
zsc32_human ZSCAN32 = zsc32_human ZSCAN32 (UniProt Q9NX65)
zn496_human ZNF496 = zn496_human ZNF496 (UniProt Q96IT1)
zn446_human ZNF446 = zn446_human ZNF446 (UniProt Q9NWS9)
pgbd1_human PGBD1 = pgbd1_human PGBD1 (UniProt Q96JS3)
cep70_human CEP70 [1] = molecular target: cep70_human CEP70 (UniProt Q8NHQ1)
kr101_human KRTAP10-1 = kr101_human KRTAP10-1 (UniProt P60331)
tri41_human TRIM41 [2] = molecular target: tri41_human TRIM41 (UniProt Q8WV44)
cep70_human CEP70 [3] = molecular target: cep70_human CEP70 (UniProt Q8NHQ1); remark: listed apart in the source
zc4h2_human ZC4H2 = zc4h2_human ZC4H2 (UniProt Q9NQZ6)
mtus2_human MTUS2 = mtus2_human MTUS2 (UniProt Q5JR59)
cc136_human CCDC136 = cc136_human CCDC136 (UniProt Q96JN2)
cep70_human CEP70 [4] = molecular target: cep70_human CEP70 (UniProt Q8NHQ1); remark: listed apart in the source
tri41_human TRIM41 [5] = molecular target: tri41_human TRIM41 (UniProt Q8WV44); remark: listed apart in the source

Sequence of cep70_human CEP70 (Q8NHQ1 whole entry): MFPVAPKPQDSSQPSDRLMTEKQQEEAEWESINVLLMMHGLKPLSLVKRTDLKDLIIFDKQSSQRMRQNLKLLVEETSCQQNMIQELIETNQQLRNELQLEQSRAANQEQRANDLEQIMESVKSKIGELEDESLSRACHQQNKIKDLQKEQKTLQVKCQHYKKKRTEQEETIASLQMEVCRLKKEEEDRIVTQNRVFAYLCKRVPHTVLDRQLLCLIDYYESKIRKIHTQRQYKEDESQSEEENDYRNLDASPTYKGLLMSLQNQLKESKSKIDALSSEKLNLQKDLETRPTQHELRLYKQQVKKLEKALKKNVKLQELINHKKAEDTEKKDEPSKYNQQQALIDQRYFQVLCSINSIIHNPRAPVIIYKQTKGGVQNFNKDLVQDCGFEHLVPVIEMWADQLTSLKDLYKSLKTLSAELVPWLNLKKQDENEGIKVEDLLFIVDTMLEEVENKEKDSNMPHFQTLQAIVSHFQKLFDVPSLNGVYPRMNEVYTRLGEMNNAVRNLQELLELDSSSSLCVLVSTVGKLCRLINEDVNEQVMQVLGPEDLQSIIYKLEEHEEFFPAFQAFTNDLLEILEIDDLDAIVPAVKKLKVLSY
Sequence of Zinc finger and SCAN domain-containing protein 22 (Homo sapiens), P10073 A321V (P10073 whole entry A321V, the tested form may be a part): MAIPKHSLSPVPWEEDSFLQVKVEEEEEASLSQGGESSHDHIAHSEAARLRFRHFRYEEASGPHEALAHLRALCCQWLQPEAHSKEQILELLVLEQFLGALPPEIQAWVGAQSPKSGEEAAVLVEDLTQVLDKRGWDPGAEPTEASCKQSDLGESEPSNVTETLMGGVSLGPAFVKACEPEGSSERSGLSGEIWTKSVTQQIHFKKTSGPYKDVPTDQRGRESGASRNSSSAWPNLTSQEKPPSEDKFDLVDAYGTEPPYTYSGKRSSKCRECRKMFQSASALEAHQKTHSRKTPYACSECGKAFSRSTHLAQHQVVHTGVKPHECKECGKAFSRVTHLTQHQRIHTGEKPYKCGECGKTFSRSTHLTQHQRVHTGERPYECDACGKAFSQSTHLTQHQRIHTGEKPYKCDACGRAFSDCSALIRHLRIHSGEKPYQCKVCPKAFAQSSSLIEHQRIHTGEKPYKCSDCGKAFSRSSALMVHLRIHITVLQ
Sequence of Troponin T, slow skeletal muscle (Homo sapiens), P13805 R39S (P13805 whole entry R39S): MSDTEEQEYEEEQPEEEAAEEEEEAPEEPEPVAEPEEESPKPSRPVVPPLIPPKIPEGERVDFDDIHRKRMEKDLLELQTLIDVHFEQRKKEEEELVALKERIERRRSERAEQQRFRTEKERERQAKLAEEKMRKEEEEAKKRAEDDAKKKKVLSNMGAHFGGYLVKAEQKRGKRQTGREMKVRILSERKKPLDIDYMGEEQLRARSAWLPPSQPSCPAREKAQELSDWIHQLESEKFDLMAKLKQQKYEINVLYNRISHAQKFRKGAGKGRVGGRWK
Sequence of Tyrosine-protein kinase Blk (Homo sapiens), P51451 A71T (P51451 whole entry A71T): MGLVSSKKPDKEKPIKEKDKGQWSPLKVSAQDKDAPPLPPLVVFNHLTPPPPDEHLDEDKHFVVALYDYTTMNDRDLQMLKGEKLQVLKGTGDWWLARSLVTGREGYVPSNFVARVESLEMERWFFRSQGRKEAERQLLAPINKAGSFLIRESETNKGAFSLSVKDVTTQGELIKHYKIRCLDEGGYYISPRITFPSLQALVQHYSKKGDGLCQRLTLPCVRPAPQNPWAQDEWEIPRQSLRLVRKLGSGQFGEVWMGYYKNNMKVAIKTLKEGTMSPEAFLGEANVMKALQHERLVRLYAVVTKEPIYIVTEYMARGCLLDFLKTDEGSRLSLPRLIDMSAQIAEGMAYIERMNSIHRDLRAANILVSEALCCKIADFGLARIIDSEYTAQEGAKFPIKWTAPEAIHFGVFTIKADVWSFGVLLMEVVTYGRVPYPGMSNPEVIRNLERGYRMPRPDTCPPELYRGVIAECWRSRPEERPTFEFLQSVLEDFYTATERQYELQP
Sequence of Polypyrimidine tract-binding protein 1 (Homo sapiens), P26599 A173T (P26599 whole entry A173T): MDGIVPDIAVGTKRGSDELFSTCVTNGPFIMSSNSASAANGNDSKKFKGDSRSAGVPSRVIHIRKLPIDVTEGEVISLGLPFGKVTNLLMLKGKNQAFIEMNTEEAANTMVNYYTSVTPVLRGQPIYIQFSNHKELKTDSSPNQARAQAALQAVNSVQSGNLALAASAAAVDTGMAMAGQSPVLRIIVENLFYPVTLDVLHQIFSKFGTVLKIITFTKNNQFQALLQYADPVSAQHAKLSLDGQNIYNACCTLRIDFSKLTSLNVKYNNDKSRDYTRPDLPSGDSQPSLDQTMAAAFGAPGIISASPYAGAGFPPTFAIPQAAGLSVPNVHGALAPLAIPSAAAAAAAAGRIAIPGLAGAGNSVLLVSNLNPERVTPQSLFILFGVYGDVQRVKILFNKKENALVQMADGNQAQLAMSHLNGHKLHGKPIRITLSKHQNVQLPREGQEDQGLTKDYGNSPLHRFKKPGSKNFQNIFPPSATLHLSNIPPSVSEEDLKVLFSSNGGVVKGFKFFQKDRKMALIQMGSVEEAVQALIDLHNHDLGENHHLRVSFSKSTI
Sequence of ccdb1_human CCNDBP1 (O95273 whole entry): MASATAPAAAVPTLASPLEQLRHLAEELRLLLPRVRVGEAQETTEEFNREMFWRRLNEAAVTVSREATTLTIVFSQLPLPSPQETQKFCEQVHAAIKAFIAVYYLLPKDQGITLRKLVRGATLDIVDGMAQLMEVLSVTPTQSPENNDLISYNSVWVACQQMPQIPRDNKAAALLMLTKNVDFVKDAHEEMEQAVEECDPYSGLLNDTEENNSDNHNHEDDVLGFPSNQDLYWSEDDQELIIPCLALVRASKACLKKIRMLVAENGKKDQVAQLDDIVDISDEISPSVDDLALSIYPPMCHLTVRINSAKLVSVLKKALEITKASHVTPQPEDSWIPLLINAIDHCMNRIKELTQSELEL
Sequence of phs_human PCBD1 (P61457 whole entry): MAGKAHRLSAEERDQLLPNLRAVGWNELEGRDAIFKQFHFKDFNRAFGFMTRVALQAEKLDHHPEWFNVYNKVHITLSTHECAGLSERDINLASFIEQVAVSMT
Sequence of ptps_human PTS (Q03393 whole entry): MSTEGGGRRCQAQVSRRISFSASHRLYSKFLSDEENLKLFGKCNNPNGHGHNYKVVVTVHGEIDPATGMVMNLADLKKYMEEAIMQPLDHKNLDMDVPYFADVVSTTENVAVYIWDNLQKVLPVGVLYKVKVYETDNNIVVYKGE
Sequence of nf2l2_human NFE2L2 (Q16236 whole entry): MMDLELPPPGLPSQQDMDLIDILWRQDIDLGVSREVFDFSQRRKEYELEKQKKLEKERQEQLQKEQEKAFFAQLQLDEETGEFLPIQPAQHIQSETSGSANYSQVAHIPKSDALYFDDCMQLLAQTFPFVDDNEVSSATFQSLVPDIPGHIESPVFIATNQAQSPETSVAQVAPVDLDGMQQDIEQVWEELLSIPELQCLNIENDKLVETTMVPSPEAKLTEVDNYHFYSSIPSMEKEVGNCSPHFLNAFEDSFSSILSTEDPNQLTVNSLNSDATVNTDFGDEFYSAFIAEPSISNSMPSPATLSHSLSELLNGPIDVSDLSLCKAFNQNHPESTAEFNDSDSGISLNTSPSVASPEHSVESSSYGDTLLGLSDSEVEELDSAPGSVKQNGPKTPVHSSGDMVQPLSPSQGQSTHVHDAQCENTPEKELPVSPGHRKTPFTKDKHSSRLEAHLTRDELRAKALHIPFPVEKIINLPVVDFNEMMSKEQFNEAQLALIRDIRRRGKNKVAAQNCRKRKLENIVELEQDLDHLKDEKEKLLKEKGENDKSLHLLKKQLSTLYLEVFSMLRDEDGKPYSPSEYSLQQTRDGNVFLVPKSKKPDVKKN
Sequence of scel_human SCEL (O95171 whole entry): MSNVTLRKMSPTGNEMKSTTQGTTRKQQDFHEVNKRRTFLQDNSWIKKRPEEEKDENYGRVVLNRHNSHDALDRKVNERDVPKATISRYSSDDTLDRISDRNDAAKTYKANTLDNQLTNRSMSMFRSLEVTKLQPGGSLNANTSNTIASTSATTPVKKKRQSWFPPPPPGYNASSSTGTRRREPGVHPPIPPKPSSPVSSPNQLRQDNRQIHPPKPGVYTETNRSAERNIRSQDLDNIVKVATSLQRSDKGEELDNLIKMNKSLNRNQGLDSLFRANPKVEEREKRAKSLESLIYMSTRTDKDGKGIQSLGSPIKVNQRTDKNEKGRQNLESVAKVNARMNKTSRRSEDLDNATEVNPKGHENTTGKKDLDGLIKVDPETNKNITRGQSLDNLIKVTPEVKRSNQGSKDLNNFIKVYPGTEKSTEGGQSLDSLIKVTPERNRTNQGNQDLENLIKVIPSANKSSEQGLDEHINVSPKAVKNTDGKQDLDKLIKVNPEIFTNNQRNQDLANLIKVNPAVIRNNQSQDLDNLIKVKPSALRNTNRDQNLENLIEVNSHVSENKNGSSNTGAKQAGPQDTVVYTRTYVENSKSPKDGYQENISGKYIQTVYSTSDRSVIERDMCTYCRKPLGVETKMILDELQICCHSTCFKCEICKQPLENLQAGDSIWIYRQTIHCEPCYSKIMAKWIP
Sequence of tom1_human TOM1 (O60784 whole entry): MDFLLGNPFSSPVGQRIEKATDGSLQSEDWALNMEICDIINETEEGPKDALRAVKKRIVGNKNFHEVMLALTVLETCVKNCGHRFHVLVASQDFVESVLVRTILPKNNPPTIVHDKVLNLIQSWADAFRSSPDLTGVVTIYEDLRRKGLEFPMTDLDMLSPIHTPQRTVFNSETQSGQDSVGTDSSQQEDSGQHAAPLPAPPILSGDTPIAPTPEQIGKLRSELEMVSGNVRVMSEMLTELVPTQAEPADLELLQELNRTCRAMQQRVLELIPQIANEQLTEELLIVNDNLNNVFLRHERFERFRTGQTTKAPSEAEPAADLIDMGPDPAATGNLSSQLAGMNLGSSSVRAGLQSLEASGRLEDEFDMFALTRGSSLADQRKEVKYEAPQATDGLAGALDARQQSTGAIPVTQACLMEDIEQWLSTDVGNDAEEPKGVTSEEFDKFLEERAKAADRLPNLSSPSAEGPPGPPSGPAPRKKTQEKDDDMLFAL
Sequence of Protein S100-A2 (Homo sapiens), P29034 S62N (P29034 whole entry S62N): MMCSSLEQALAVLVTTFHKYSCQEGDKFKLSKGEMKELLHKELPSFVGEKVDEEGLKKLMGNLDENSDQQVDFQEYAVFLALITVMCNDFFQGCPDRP

effect of a mutation on the interaction (tfp11_human TFIP11): with no effect | effect of a mutation on the interaction (reep6_human REEP6): with no effect | effect of a mutation on the interaction (atrap_human AGTRAP): with no effect
Substance: Atypical kinase COQ8A, mitochondrial (Homo sapiens), Q8NI60 D100Y

effect of a mutation on the interaction (nqo2_human NQO2): with no effect | effect of a mutation on the interaction (rgs3_human RGS3): with no effect
Substance: Golgi reassembly-stacking protein 2 (Homo sapiens) (from UniProt Q9H8Y8) S432F
effect of a mutation on the interaction (stox1_human STOX1): with no effect

effect of a mutation on the interaction (S100A1): with no effect
Substance: Protein S100-A2 (Homo sapiens), P29034 S62N

effect of a mutation on the interaction (tom1_human TOM1): with no effect
Substance: Toll-interacting protein (Homo sapiens) (from UniProt Q9H0E2) I264V

effect of a mutation on the interaction (naif1_human NAIF1): with no effect
Substance: Transcription factor SOX-14 (Homo sapiens), O95416 A107G

effect of a mutation on the interaction (stat3_human STAT3): with no effect | effect of a mutation on the interaction (efs_human EFS): with no effect
Substance: Tyrosine-protein kinase Blk (Homo sapiens), P51451 A71T

effect of a mutation on the interaction (cep70_human CEP70 [1]): with no effect
Substance: Zinc finger protein 227 (Homo sapiens), Q86WZ6 P249S

effect of a mutation on the interaction (tri41_human TRIM41 [2]): with no effect | effect of a mutation on the interaction (cep70_human CEP70 [3]): with no effect
Substance: Zinc finger protein 329 (Homo sapiens), Q86UD4 N182D

More lines, now with the values behind:

Substance: Golgi-associated PDZ and coiled-coil motif-containing protein (Homo sapiens) (from UniProt Q9HD26) L123V
effect of a mutation on the interaction (mycd_human MYOCD): with no effect | effect of a mutation on the interaction (fosl2_human FOSL2): with no effect | effect of a mutation on the interaction (vtnc_human VTN): with no effect | effect of a mutation on the interaction (gt253_human CERCAM): with no effect

Substance: NEDD4-like E3 ubiquitin-protein ligase WWP2 (Homo sapiens), O00308 R315C
effect of a mutation on the interaction (leg9b_human LGALS9B): with no effect | effect of a mutation on the interaction (pdli7_human PDLIM7): with no effect | effect of a mutation on the interaction (anr44_human ANKRD44): with no effect

Substance: Polypyrimidine tract-binding protein 1 (Homo sapiens), P26599 A173T
effect of a mutation on the interaction (snrpa_human SNRPA): with no effect | effect of a mutation on the interaction (ptbp2_human PTBP2): with no effect

Substance: RNA-binding protein FXR2 (Homo sapiens), P51116 K651E
effect of a mutation on the interaction (scel_human SCEL): with no effect | effect of a mutation on the interaction (ap2m1_human AP2M1): with no effect | effect of a mutation on the interaction (lcp2_human LCP2): with no effect | effect of a mutation on the interaction (phs_human PCBD1): with no effect | effect of a mutation on the interaction (tb22b_human TBC1D22B): with no effect | effect of a mutation on the interaction (pram_human PRAM1): with no effect | effect of a mutation on the interaction (FBP1): disrupting interaction strength | effect of a mutation on the interaction (ptps_human PTS): with no effect | effect of a mutation on the interaction (cdkl3_human CDKL3): with no effect | effect of a mutation on the interaction (frih_human FTH1): with no effect

Substance: Thioredoxin domain-containing protein 12 (Homo sapiens), O95881 T80M
effect of a mutation on the interaction (ubql1_human UBQLN1): with no effect

Substance: Toll-interacting protein (Homo sapiens) (from UniProt Q9H0E2) A222S
effect of a mutation on the interaction (odam_human ODAM): with no effect | effect of a mutation on the interaction (rhxf2_human RHOXF2): with no effect

Substance: Troponin T, slow skeletal muscle (Homo sapiens), P13805 R39S
effect of a mutation on the interaction (nf2l2_human NFE2L2): with no effect | effect of a mutation on the interaction (jkip2_human JAKMIP2): with no effect | effect of a mutation on the interaction (ccdb1_human CCNDBP1): with no effect

Substance: Zinc finger and SCAN domain-containing protein 22 (Homo sapiens), P10073 A321V
effect of a mutation on the interaction (zsc32_human ZSCAN32): with no effect | effect of a mutation on the interaction (zn496_human ZNF496): with no effect | effect of a mutation on the interaction (zn446_human ZNF446): with no effect | effect of a mutation on the interaction (pgbd1_human PGBD1): with no effect

Substance: Zinc finger protein 264 (Homo sapiens), O43296 G166D
effect of a mutation on the interaction (kr101_human KRTAP10-1): with no effect

Substance: Zinc finger protein 490 (Homo sapiens), Q9ULM2 E419K
effect of a mutation on the interaction (zc4h2_human ZC4H2): with no effect | effect of a mutation on the interaction (mtus2_human MTUS2): with no effect | effect of a mutation on the interaction (cc136_human CCDC136): with no effect | effect of a mutation on the interaction (cep70_human CEP70 [4]): with no effect | effect of a mutation on the interaction (tri41_human TRIM41 [5]): with no effect
